According to IntAct's records for PubMed 20584941:

B1: Protein RESTRICTED TEV MOVEMENT 3 (Arabidopsis thaliana (Mouse-ear cress)), D5K228 (parent)
chain: MGKQFDKKITWTIKNFASLLSDLIYSDHFVVGGCKWHLRAYPKGYNNANSLSLFLGVAVPTSLPSGWRRHTKFRLTLVNQLSDKLSQSKLNELEQWFDEKTTNWGLSSMCPLNEIHAKDSGFLLNGELKIVVEIKVLETIGKLDVTEETSTITETVDVNGFQLLPSQAKSVSRMFAKHPELASDLRPKNPNLRTGYMSLLLSLIETLSQLPQQMSKDDLLDAYDALGSMRDAGFKLDWLEKKLYEVSEKKENEEASETGLQEMEEELKDMKQKCLEMEALVEKEKAKVSTAKAPISFDDIV
partner: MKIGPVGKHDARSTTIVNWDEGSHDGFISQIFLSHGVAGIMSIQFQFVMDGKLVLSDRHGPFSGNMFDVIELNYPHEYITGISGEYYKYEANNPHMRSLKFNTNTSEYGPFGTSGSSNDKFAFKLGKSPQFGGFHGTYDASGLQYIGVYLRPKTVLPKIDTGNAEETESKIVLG

Variants of: B1
Settings: with jal1_arath RTM1, Q9SE37

Row | effect of a mutation on the interaction | Variant
1 | decreasing interaction | MGKQFDKKITWTIKNFASLLSDLIYSDHFVVGGCKWHLRAYPKGYNNANSLSLFLGVAVPTSLPSGWRRHTKFRLTLVNQLSDKLSQSKLNELEQWFDEKTTNWGLSSMCPLNEIHAKDSGFLLNGELKIVVEIKVLETIGKLDVTEETSTITETVDVNGFQLLPSQAKSVSRMFAKHPELASDLRPKNPNLRTGYMSLLLSLIETLSQLPQQMSKDDLLDAYDALGSMRDAGFKLDWLEKKLYEVSEKKENEEASETGLQEMEEELKDMKQKCLEMEALVEKKKAKVSTAKAPISFDDIV [E284K]
